The values that follow come from the supplement of paper PMC9112550, “Optimization of the antimicrobial peptide Bac7 by deep mutational scanning” (BMC Biology, 2022).

In this series the test system is Escherichia coli TOP10. In words: shrunken log2 fold change of peptide-encoding DNA abundance (4.5 h post-induction vs induction); higher = less antimicrobial activity (less host growth inhibition). Particulars: time post-induction: 4.5 h; library: site-saturation at positions 5, 18, 19, 20.
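Note: peptides expressed intracellularly from a pBAD plasmid library in pooled LB shake-flask culture, induced with 0.3% L-arabinose, DNA abundance read by NGS, three biological replicates, DESeq2 with apeglm shrinkage.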

RRIRDRPPRLPRPRPRPVTRPRP: the “shrunken log2 fold change” value worked out at 0.348. The figure for RRIRFRPPRLPRPRPRPQIDPRP is 0.0185. The figure for RRIRCRPPRLPRPRPRPKVAPRP is -0.118. The value for RRIRGRPPRLPRPRPRPSMRPRP was 1.15; that for RRIRFRPPRLPRPRPRPEVDPRP was 0.084.

As for RRIRGRPPRLPRPRPRPNFDPRP, the “shrunken log2 fold change” value is 0.491.

As to RRIRSRPPRLPRPRPRPTLTPRP, the “shrunken log2 fold change” value came out at 0.206.

On to RRIRARPPRLPRPRPRPNFTPRP, for which the “shrunken log2 fold change” value amounted to 0.134. The value for RRIRGRPPRLPRPRPRPTIHPRP was 0.434. Regarding RRIRTRPPRLPRPRPRPCEHPRP, the “shrunken log2 fold change” value came to 0.00673.

As to RRIRQRPPRLPRPRPRPHFCPRP, the “shrunken log2 fold change” value amounted to 0.0177. The value for RRIRWRPPRLPRPRPRPTYGPRP was 0.0553; that for RRIRYRPPRLPRPRPRPDENPRP was -0.0185.

Regarding RRIRSRPPRLPRPRPRPETPPRP, the “shrunken log2 fold change” value was determined as 1.01.

As for RRIRVRPPRLPRPRPRPGDDPRP, the “shrunken log2 fold change” value turned out to be 0.364. The value for RRIRSRPPRLPRPRPRPIIKPRP was 0.18. The figure for RRIRKRPPRLPRPRPRPDDIPRP is 0.0454; for RRIRFRPPRLPRPRPRPNPMPRP it is -0.136; for RRIRIRPPRLPRPRPRPGDIPRP it is -0.0899. The value for RRIRDRPPRLPRPRPRPRLCPRP was 0.265.

In the case of RRIRCRPPRLPRPRPRPQDYPRP, the “shrunken log2 fold change” value is -0.176. The value for RRIRFRPPRLPRPRPRPATGPRP was 1.21. With RRIRWRPPRLPRPRPRPGQMPRP, the “shrunken log2 fold change” value turned out to be 0.0528. As for RRIRHRPPRLPRPRPRPSTRPRP, the “shrunken log2 fold change” value stood at 0.0896. The figure for RRIRPRPPRLPRPRPRPHYQPRP is -0.417; for RRIRERPPRLPRPRPRPHYDPRP it is -0.963; for RRIRCRPPRLPRPRPRPAENPRP it is 0.000461. The value for RRIRHRPPRLPRPRPRPKVTPRP was -0.62. The value for RRIRHRPPRLPRPRPRPVMWPRP was 0.21. In the case of RRIRSRPPRLPRPRPRPIMRPRP, the “shrunken log2 fold change” value was 0.73.

Take RRIRDRPPRLPRPRPRPTASPRP: the “shrunken log2 fold change” value is 0.381. Regarding RRIRGRPPRLPRPRPRPFFAPRP, the “shrunken log2 fold change” value was 0.747. The figure for RRIRDRPPRLPRPRPRPPYNPRP is -0.395; for RRIRMRPPRLPRPRPRPNACPRP it is 0.0451. The figure for RRIRRRPPRLPRPRPRPKIIPRP is -0.364; for RRIRTRPPRLPRPRPRPQQMPRP it is -0.0941.

As to RRIRMRPPRLPRPRPRPELNPRP, the “shrunken log2 fold change” value worked out at 0.0722. RRIRHRPPRLPRPRPRPTHWPRP: the “shrunken log2 fold change” value amounted to 0.706. The figure for RRIRPRPPRLPRPRPRPWTYPRP is -0.0785; for RRIRCRPPRLPRPRPRPESFPRP it is 0.0159. The figure for RRIRCRPPRLPRPRPRPEYDPRP is -0.173; for RRIRERPPRLPRPRPRPMIYPRP it is -0.12; for RRIRCRPPRLPRPRPRPFIYPRP it is -0.808. For RRIRVRPPRLPRPRPRPQADPRP, the “shrunken log2 fold change” value worked out at 0.0259. For RRIRLRPPRLPRPRPRPKLFPRP, the “shrunken log2 fold change” value is 0.306. On to RRIRDRPPRLPRPRPRPVYYPRP, for which the “shrunken log2 fold change” value was -0.707. The figure for RRIRDRPPRLPRPRPRPFSVPRP is -0.0199; for RRIRFRPPRLPRPRPRPKINPRP it is -0.385; for RRIRGRPPRLPRPRPRPQFWPRP it is 0.553. The value for RRIRPRPPRLPRPRPRPVYMPRP was -1.1; that for RRIRIRPPRLPRPRPRPATEPRP was 0.421. With RRIRDRPPRLPRPRPRPAMKPRP, the “shrunken log2 fold change” value is -0.0728.

For RRIRGRPPRLPRPRPRPVHTPRP, the “shrunken log2 fold change” value came out at 0.174. Consider RRIRQRPPRLPRPRPRPFAGPRP, for which the “shrunken log2 fold change” value was found to be 0.0242. The value for RRIRQRPPRLPRPRPRPTQGPRP was 2.34; that for RRIRIRPPRLPRPRPRPDCDPRP was -0.242; that for RRIRLRPPRLPRPRPRPLTKPRP was -0.0425. As to RRIRCRPPRLPRPRPRPVIVPRP, the “shrunken log2 fold change” value is -0.208. In the case of RRIRDRPPRLPRPRPRPIYEPRP, the “shrunken log2 fold change” value was found to be 0.0032. The value for RRIRIRPPRLPRPRPRPTKNPRP was -0.355; that for RRIRKRPPRLPRPRPRPLWMPRP was -0.0285; that for RRIRCRPPRLPRPRPRPRIRPRP was 0.0722. The figure for RRIRQRPPRLPRPRPRPQHHPRP is -0.527. For RRIRQRPPRLPRPRPRPVNRPRP, the “shrunken log2 fold change” value was determined as 0.00086. Consider RRIRFRPPRLPRPRPRPTVAPRP, for which the “shrunken log2 fold change” value was determined as 0.226. The figure for RRIRFRPPRLPRPRPRPMPYPRP is -0.218; for RRIRHRPPRLPRPRPRPQERPRP it is -0.0325.

RRIRLRPPRLPRPRPRPQIFPRP: the “shrunken log2 fold change” value is -0.165. For RRIRRRPPRLPRPRPRPDAGPRP, the “shrunken log2 fold change” value worked out at 0.307. On to RRIRQRPPRLPRPRPRPHKAPRP, for which the “shrunken log2 fold change” value was -0.0398. The value for RRIRGRPPRLPRPRPRPREPPRP was 0.812. For the sequence RRIRERPPRLPRPRPRPHYTPRP, the “shrunken log2 fold change” value is -0.615.

As for RRIRPRPPRLPRPRPRPYTGPRP, the “shrunken log2 fold change” value is -0.6. The value for RRIRYRPPRLPRPRPRPLTMPRP was -0.529; that for RRIRRRPPRLPRPRPRPPKSPRP was 0.37; that for RRIRGRPPRLPRPRPRPGRFPRP was 0.45.

As for RRIRLRPPRLPRPRPRPAGDPRP, the “shrunken log2 fold change” value was 0.297. The value for RRIRWRPPRLPRPRPRPFQKPRP was 0.0262; that for RRIRGRPPRLPRPRPRPRNEPRP was 0.725; that for RRIRHRPPRLPRPRPRPQRNPRP was -0.223. The figure for RRIRHRPPRLPRPRPRPRSYPRP is -0.12. Regarding RRIRIRPPRLPRPRPRPGPKPRP, the “shrunken log2 fold change” value came to 0.00436. The value for RRIRQRPPRLPRPRPRPIDIPRP was 0.107; that for RRIRRRPPRLPRPRPRPGYEPRP was 0.0872. Turning to RRIRLRPPRLPRPRPRPLLQPRP, the “shrunken log2 fold change” value is 0.138.

As to RRIRQRPPRLPRPRPRPSHHPRP, the “shrunken log2 fold change” value came to 0.0184. The figure for RRIRDRPPRLPRPRPRPRYKPRP is -0.202; for RRIRTRPPRLPRPRPRPSADPRP it is -0.0419; for RRIRTRPPRLPRPRPRPLERPRP it is -0.0732.

In the case of RRIRPRPPRLPRPRPRPIRRPRP, the “shrunken log2 fold change” value is -0.0359.

In the case of RRIRARPPRLPRPRPRPYNIPRP, the “shrunken log2 fold change” value was -0.159.

With RRIRCRPPRLPRPRPRPCFSPRP, the “shrunken log2 fold change” value was -0.344. The figure for RRIRNRPPRLPRPRPRPTITPRP is -0.455; for RRIRKRPPRLPRPRPRPVWPPRP it is 0.699; for RRIRVRPPRLPRPRPRPTKCPRP it is -0.458.

Take RRIRRRPPRLPRPRPRPWHTPRP: the “shrunken log2 fold change” value was -0.456. The value for RRIRERPPRLPRPRPRPPCGPRP was 0.259.

On to RRIRRRPPRLPRPRPRPLMVPRP, for which the “shrunken log2 fold change” value was -0.161. Take RRIRVRPPRLPRPRPRPPNWPRP: the “shrunken log2 fold change” value was 0.293.

As to RRIRSRPPRLPRPRPRPNFWPRP, the “shrunken log2 fold change” value stood at 0.0869. The figure for RRIRVRPPRLPRPRPRPAHDPRP is 0.113; for RRIRYRPPRLPRPRPRPSYRPRP it is -0.0896; for RRIRMRPPRLPRPRPRPSLFPRP it is 0.136. Consider RRIRMRPPRLPRPRPRPHLPPRP, for which the “shrunken log2 fold change” value was -0.00448. The figure for RRIRCRPPRLPRPRPRPRWCPRP is -0.131; for RRIRNRPPRLPRPRPRPFHNPRP it is -0.12. RRIRHRPPRLPRPRPRPNHLPRP: the “shrunken log2 fold change” value was -0.0856.

With RRIRDRPPRLPRPRPRPFKNPRP, the “shrunken log2 fold change” value was 0.11. For the sequence RRIRCRPPRLPRPRPRPRMLPRP, the “shrunken log2 fold change” value came to 0.0183. In the case of RRIRLRPPRLPRPRPRPKADPRP, the “shrunken log2 fold change” value is -0.051.

On to RRIRFRPPRLPRPRPRPARCPRP, for which the “shrunken log2 fold change” value came out at 0.44.

As for RRIRNRPPRLPRPRPRPARDPRP, the “shrunken log2 fold change” value amounted to 0.27. The figure for RRIRNRPPRLPRPRPRPTHIPRP is -0.0851; for RRIRPRPPRLPRPRPRPNHWPRP it is -0.0328; for RRIRPRPPRLPRPRPRPRSDPRP it is 0.179. RRIRCRPPRLPRPRPRPFEMPRP: the “shrunken log2 fold change” value was -0.36.

On to RRIRGRPPRLPRPRPRPRLNPRP, for which the “shrunken log2 fold change” value stood at 0.57. With RRIRQRPPRLPRPRPRPLPWPRP, the “shrunken log2 fold change” value stood at 0.117. RRIRRRPPRLPRPRPRPNHEPRP: the “shrunken log2 fold change” value was -0.0399. Consider RRIRWRPPRLPRPRPRPCVTPRP, for which the “shrunken log2 fold change” value worked out at 0.024. The figure for RRIRIRPPRLPRPRPRPGNTPRP is -0.546; for RRIRMRPPRLPRPRPRPIVHPRP it is -0.289.

RRIRFRPPRLPRPRPRPPIAPRP: the “shrunken log2 fold change” value was 0.31. The figure for RRIRKRPPRLPRPRPRPTCRPRP is 0.289; for RRIRIRPPRLPRPRPRPNECPRP it is -0.0258.
